Measured values published in paper PMC10411777, “Analytical sameness methodology for the evaluation of structural, physicochemical, and biological characteristics of Armlupeg: A pegfilgrastim biosimilar case study” (PLOS ONE, 2023).

Target: G-CSF receptor (UniProt Q99062 25-836)
Assay: SPR; BIAcore T200; G-CSF receptor immobilised on a CM5 chip at 2000 RU by amine coupling; pegfilgrastim injected at seven concentrations from 0.08 to 5 nM; 1:1 binding model; KD from kinetics; triplicates for each batch
Settings: both partners purified

Chain of G-CSF receptor (Q99062 25-836): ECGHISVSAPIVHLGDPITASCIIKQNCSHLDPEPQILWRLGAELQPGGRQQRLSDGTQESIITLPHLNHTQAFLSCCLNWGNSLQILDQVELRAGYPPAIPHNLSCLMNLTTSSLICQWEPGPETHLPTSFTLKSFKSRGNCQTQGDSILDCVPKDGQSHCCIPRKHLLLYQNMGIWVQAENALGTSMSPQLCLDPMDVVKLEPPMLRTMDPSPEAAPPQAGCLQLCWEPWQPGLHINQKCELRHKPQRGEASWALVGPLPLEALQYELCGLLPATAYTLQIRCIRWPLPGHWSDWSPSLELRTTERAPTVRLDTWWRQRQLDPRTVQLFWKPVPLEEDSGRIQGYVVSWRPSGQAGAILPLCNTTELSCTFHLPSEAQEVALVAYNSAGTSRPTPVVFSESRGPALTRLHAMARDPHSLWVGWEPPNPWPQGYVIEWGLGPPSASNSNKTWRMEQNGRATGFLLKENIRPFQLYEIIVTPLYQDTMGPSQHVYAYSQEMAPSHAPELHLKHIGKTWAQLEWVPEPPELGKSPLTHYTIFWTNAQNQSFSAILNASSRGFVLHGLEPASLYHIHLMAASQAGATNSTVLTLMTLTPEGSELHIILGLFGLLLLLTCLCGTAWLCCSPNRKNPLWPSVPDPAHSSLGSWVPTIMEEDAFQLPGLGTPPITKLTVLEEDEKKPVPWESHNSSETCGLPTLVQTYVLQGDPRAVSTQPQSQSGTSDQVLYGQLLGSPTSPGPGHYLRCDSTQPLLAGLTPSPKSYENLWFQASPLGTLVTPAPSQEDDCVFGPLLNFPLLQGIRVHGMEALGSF

Kd: 0.0512 to 0.118 nM
B1: Armlupeg (Lupin’s Pegfilgrastim) (ligand, human)
chain: MTPLGPASSLPQSFLLKCLEQVRKIQGDGAALQEKLCATYKLCHPEELVLLGHSLGIPWAPLSSCPSQALQLAGCLSQLHSGLFLYQGLLQALEGISPELGPTLDTLQLDVADFATTIWQQMEELGMAPALQPTQGAMPAFASAFQRRAGGVLVASHLQSFLEVSYRVLRHLAQP
modifications: 20 kDa monomethoxy polyethylene glycol (PEG) covalently bound to the N-terminal methionine residue
notes: N-terminal methionine residue of filgrastim, named in words; it carries the PEG; Filgrastim: recombinant human granulocyte colony-stimulating factor (G-CSF), 175 amino acids with the N-terminal methionine; 18 lots were used for SPR; also called proposed biosimilar; source: Armlupeg drug product lots (Lupin Limited)
